Values quoted from earlier work, collected in PMC4244080.

Biological target: insulin receptor (Homo sapiens) (UniProt P06213)
Experiment: radioligand binding

UniProt P06213, sequence (P06213 763-1382): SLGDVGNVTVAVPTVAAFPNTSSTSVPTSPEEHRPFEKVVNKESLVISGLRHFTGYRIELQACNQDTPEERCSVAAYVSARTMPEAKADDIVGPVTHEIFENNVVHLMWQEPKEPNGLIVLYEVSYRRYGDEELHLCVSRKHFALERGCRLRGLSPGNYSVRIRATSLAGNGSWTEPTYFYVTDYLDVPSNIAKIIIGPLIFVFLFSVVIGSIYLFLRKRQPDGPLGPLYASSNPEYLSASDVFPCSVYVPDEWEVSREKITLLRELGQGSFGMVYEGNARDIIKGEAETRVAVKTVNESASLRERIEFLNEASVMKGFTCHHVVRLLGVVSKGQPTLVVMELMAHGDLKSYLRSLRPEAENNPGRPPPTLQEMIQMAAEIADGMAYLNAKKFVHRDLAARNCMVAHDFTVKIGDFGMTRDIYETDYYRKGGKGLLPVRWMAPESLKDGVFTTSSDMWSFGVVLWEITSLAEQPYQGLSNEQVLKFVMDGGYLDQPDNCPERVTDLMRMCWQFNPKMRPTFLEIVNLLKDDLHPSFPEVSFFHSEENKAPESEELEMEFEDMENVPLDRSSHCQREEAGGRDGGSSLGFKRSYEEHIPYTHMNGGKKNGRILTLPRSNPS
insulin, sequence (P01308 90-110): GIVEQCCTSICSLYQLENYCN

## insulin (from UniProt P01308)
  Kd: 0.3 nM
